# Measured values published in patent US20170029530A1 (AbbVie / Abbott, published 2017).
# Several values for one entry are separate records, joined by “and”; a condition that tells them apart may be missing. Identical values can stand only once.
# T1: mDPEP3 (limits assumed)
# T1 construct: also called mouse DPEP3-His; mouse DPEP3 ECD with histidine tag
# T1 single chain: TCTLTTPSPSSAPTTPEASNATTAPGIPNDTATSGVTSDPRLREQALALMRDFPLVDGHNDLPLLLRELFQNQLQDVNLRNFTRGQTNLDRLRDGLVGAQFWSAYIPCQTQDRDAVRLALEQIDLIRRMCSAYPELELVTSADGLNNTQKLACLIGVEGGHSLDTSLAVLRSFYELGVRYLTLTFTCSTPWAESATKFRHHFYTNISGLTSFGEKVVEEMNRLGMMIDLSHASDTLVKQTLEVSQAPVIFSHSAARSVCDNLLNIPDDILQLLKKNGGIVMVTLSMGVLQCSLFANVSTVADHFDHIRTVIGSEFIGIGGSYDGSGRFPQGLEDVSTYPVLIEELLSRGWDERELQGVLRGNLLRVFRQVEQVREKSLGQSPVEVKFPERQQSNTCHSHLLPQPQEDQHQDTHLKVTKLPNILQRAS
# T2: rat DPEP3 ECD with histidine tag (rat, UniProt Q5U2X4 36-459, limits assumed)
# T2 construct: also called rDPEP3-His; ratDPEP3-His; not shown: histidine tag
# T2 sequence: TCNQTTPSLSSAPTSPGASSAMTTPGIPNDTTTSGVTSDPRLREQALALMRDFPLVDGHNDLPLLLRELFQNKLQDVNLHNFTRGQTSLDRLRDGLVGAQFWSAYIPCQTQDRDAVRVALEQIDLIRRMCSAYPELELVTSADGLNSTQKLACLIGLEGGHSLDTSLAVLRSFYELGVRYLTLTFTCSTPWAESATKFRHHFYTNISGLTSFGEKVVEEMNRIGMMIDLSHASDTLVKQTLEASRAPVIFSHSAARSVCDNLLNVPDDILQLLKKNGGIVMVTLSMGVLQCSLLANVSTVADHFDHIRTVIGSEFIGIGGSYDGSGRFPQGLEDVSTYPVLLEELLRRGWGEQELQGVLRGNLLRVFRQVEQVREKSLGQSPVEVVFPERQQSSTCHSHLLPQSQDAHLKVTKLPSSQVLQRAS
# T3: hDPEP3-ECD-His (human, UniProt Q9H4B8 36-463)
# T3 construct: also called hDPEP3-His; monomeric hDPEP3-His antigen; not shown: histidine tag
# T3 sequence: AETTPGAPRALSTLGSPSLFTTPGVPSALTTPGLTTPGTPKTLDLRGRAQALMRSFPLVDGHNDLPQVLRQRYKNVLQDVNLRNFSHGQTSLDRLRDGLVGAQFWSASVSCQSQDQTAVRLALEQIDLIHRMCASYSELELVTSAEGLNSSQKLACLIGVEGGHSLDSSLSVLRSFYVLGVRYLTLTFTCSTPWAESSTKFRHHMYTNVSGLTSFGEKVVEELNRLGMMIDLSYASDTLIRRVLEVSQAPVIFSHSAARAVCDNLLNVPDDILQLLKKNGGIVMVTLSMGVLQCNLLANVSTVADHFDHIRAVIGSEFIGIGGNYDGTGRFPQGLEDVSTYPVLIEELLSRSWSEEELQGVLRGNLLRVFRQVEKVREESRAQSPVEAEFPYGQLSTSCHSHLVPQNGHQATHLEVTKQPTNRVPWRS
# Legend:
# mDPEP3 = target: T1, mDPEP3; experiment: ELISA, coated antigen
# Description: (§1) The anti-DPEP3 antibodies were screened by ELISA for cross-reactivity with mouse, rat and cynomolgus DPEP3 and for cross reactivity to hDPEP2, the closest DPEP3 family member. ELISA was conducted as follows. Plates were coated with purified mouse, rat or cynomolgus DPEP3-His or hDPEP2-His at 0.3 μg/mL in 0.2 M carbonate-bicarbonate buffer, pH 9.4 overnight at 4° C. The protein solution was removed and the wells were blocked with 1% (w/v) BSA in PBS (PBSA), 100 μL/well for 1 hour at 37° C. Anti-DPEP3 antibody or a mouse isotype control antibody was then added at 1 μg/mL in 50 μL PBSA for 1 hour at room temperature. After washing with water, 50 μL/well HRP-labeled goat anti-mouse IgG antibody diluted 1:10,000 in PBSA was added for 30 min at room temperature. The plates were washed and developed by the addition of 40 μL/well of the TMB substrate solution (Thermo Scientific) at room temperature. An equal volume of 0.2 M H₂SO₄ was added to stop substrate development. The samples were then analyzed by spectrophotometer at OD 450. […] The cross reactivity results for exemplary DPEP3-specific antibodies can be seen in FIG. 4.
# [1] = target: T2, rat DPEP3 ECD with histidine tag; experiment: ELISA, coated antigen
# Description: as §1
# [2] = target: T4, hDPEP2 ECD with histidine tag (human, UniProt Q9H4A9 33-463); experiment: ELISA, coated antigen
# T4 construct: also called hDPEP2-His; not shown: histidine tag
# Description: as §1
# hDPEP3-ECD-His = target: T3, hDPEP3-ECD-His; experiment: BLI ForteBio RED, 200 nM hDPEP3-His, estimated grade
# Description: The affinity of the antibodies for hDPEP3-His was qualitatively determined from kinetics curves generated with a ForteBio RED as follows. Anti-DPEP3 antibodies were immobilized onto anti-mouse Fc capture biosensors with a contact time of 3 mins. and a flow rate of 1000 rpm. The captured antibody loading from baseline was constant at 0.3-1 units. Following antibody capture and 30 second baseline, the biosensors were dipped into a 200 nM solution of hDPEP3-His for a 4 min. association phase followed by a 3 min. dissociation phase at a shaking rate of 1000 rpm. The biosensors were regenerated by dipping into 10 mM glycine, pH 1.7 following each cycle. The data was processed by subtracting a control mouse IgG surface response from the specific antibody response and data was truncated to the association and dissociation phase. The association and dissociation curves were used to qualitatively estimate the affinities of selected antibodies. […] A designation of “ND” means that the estimated KD was not determined.
# T4 sequence (Q9H4A9 33-463): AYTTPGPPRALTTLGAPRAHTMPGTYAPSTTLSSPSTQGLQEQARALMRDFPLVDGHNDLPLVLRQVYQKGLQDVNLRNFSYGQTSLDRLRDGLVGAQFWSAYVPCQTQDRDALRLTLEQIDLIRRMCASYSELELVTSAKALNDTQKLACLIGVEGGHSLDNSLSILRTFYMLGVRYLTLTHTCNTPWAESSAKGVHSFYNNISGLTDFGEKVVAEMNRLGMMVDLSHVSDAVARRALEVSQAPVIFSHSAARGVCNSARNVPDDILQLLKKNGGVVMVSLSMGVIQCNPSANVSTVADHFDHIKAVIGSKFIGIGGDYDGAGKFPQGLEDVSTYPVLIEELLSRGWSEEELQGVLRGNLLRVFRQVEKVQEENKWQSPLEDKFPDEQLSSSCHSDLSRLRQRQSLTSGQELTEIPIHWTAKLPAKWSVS
binding result (mDPEP3),binding result [1],binding result [2],Kd (hDPEP3-ECD-His),Binder
no binding (tested: 1 ug/mL),no binding (tested: 1 ug/mL),no binding (tested: 1 ug/mL),< 5 nM,"SC34.63 (antibody, mouse IgG1) light chain: DIVMSQSPSSLAVSVGEKVTMSCKSSQSLLYSKYQKNYLAWYQQKPGQSPKLLIYWASTRESGVPDRFTGSESGTDFTLTISSVKAEDLAVYYCQQYYRYPLTVGAGTKLELK heavy chain: QVQLQQSGVELARPGASVKLSCKASGYTFTSYGIDWVKQRTGQGLEWIGETYPGRGDTYYNENFKGKATLTTDKSSSTAFLQLSSLTSEDSAVYFCARVHDYGSWFPYWGQGTLVTVSA"
no binding (tested: 1 ug/mL),no binding (tested: 1 ug/mL),no binding (tested: 1 ug/mL),< 5 nM,"SC34.91 (antibody, mouse IgG1, V domains shown) VH: QVQLQQSGAELARPGASVKLSCKASGYTFRSYAISWVKQRTGQGLEWIGEIYPGSGDTYYNENFKGKATLTTDKSSSTAYMQLSSLTSEDSAVYFCARVHDNGSWFPYWGQGTLVTVSA VL: DIVMSQSPSSLAVSVGEKVTMSCKSSQSLLYSTYQKNYLAWFQQKPGQSPKLLIYWASTRESGVPDRFTGSGSGTDFTLTISSVKAEDLAVYYCQQYYRYPLTFGAGTKLELK"
no binding (tested: 1 ug/mL),no binding (tested: 1 ug/mL),no binding (tested: 1 ug/mL),≥ 5 nM and ≤ 10 nM,"SC34.7 (antibody, mouse IgG1, V domains shown, also called SC34.07) VH: QVQVQQSGAELARPGASVKLSCKASGYTFTSYGINWVKQRTGQGLEWIGEIYPGSGNAYYNEKFKVKAKLTTDNSSRTAYMQLINLTSEDSAVYFCARVHDYGSWFPYWGQGTLVTVSA VL: DIVMSQSPSSLAVSVGEKVTMSCKSSQSLLYSRYQKNYLAWYQQKPGQSPKLLIYWASTRESGVPDRFTGSGSGTDFTLTISSVKAEDLAVYYCHQYYRYPLTFGAGTKLELK"
no binding (tested: 1 ug/mL),–,no binding (tested: 1 ug/mL),< 5 nM,"SC34.95 (antibody, mouse IgG1) light chain: DIVLSQSPSSLAVSVGEKVTMSCKSSQSLLNSRDRKNYLAWCQQKPGQSPKVMIYWASTRESGVPDRFTGSGSGTDFTLTISSVKAEDLAVYYCQQYYSYPLTVGAGTKLELK heavy chain: QVQVKQSGAELARPGASVKLSCKASGYTFTSYAINWLKQRTGQGLEWIGEIYPGSGNTYYNESFKNKATLTTDKSSTTAYMQLNSLTSEDSAVYFCARVHDYGSWFPYWGQGTLVTVSA"
no binding (tested: 1 ug/mL),no binding (tested: 1 ug/mL),no binding (tested: 1 ug/mL),< 5 nM,"SC34.76 (antibody, mouse IgG1, V domains shown) VH: QVQLQQSGAELARPGASVKLSCKTSEYTFTSYAINWVKQRTGQGLEWIGEVYPGSGNTYYNEKFKGKAILTTDKSSSTGYMQLSNLTSEDSAVYFCARVHDYGSWFPYWGQGTLVTVSA VL: DIVMSQSPSSLAVSVGERVTMNCKSSQSLFYSRYQKNYLAWYQQKPGQSPKLLIYWASTRESGVPDRFTGSGSGTDFTLTISSVKAEDLAVYYCQQYYRYPLTFGAGTKLELK"
no binding (tested: 1 ug/mL),no binding (tested: 1 ug/mL),no binding (tested: 1 ug/mL),≥ 5 nM and ≤ 10 nM,"SC34.20 (antibody, mouse IgG1, V domains shown) VH: QVQLQQSGSELARPGASVKLSCKASGYTFRSYAISWVRQRTGQGLEWIGEIYPESGNTDYNAQFKGKATLTTDKSSSTAYMQLSSLTSEASAVYFCARVHDYGSWFPYWGQGTLVTVSA VL: DIVMSQSPSSLTVSVGEKVTMSCKSSQSLLYSTYQKNYLAWFQQKPGQSPKLLIYWASTRESGVPDRFTGSGSGTDFTLTISSVKAEDLAVYYCQQYYRYPLTFGAGTKLELK"
no binding (tested: 1 ug/mL),no binding (tested: 1 ug/mL),no binding (tested: 1 ug/mL),< 5 nM,"SC34.24 (antibody, mouse IgG1, V domains shown) VH: QVQLQQSGPELARPGASVKLSCKASEYTFTSYAITWVKQRAGQGLEWIGEIYPGSGDTYYNEKFKGKATLTTDKSSSTAYMQLSSLTSEDSAVYFCARVHDYGSWFPYWGQGTLVTVSA VL: DIVMSQSPSSLAVSVGEKVTMNCKSSQSLLYSRYQKNYLAWYQQKPGQSPKLLIYWASTRESGVPDRFTGSGSGTDFTLTISSVKAEDLAVYYCQQYYRYPLTFGAGTKLELK"
no binding (tested: 1 ug/mL),no binding (tested: 1 ug/mL),no binding (tested: 1 ug/mL),< 5 nM,"SC34.67 (antibody, mouse IgG2a, V domains shown) VH: QVQLQQSGAELARPGASVRLSCKASGYTFTSYGINWVKQRTGQGLEWIGEIYPGSGDSYYNKTFKGKAILTTDKSSSTAYMQLSSLTPEDSAVYFCARVHDYGSWFPYWGPGALVTVSA VL: DMVMSQSPSSLAVSVGEKVALSCKSSQSLLHSRDQKNYLAWYQQKPGQSPKLLIHWASTRESGVPARFTGSGSGTDFTLTISSVKAEDLAVYYCQQSYRYPLTFGAGTKLELK"
no binding (tested: 1 ug/mL),–,no binding (tested: 1 ug/mL),≥ 5 nM and ≤ 10 nM,"SC34.4 (antibody, mouse IgG2b, V domains shown, also called SC34.04) VH: QVQLQQSGAELARPGASVKLSCKASGYTFTSYGINWVKQRTGQGLEWIGEIYPGSGNIYYNEKFKGKAILTTDKSSNTAYMQLSSLTSEDSAVYFCARVHDYGSWFPYWAQGTLVTVSA VL: DIVMSQSPSSLTVSVGEKVTMSCKSSQSLLYSRNQKNYLAWYQQKPGQSPKLLIYWASTRDSGVPDRFTGTGSGTDFSLTISSVKTEDLAVYYCHQHYRYPLTFGAGTKLELK"
–,–,no binding (tested: 1 ug/mL),> 10 nM,"SC34.83 (antibody, mouse IgG2a, V domains shown) VH: QVQLQQSGAELVKPGASVKISCKASGYAFSHSWMNWVKQRPGKGLEWIGRIYPGDGDINYNGKFKGKATLTADKSSSTAYMQLSSLTSEDSAVYFCARRGPSYNNYCFDYWGQGTTLTVSS VL: QIVLIQSPAIMSASPGENVTMTCSASSSVSYMHWYQQKSGTSPKRWIYDTSKLASGVPARFSGSGSGTSYSLTISSMEAEDAATYYCQQWNSYPPTFGAGTKLELK"
